Assay results as given in US20240368289A1 (LAEKNA THERAPEUTICS SHANGHAI, published 2024).

Columns and labels:
[1] = molecular target: T1, recombinant protein comprising the human ACVR2A extracellular domain (ECD) fused to the human IgG1 Fc region (human, UniProt P27037 20-135); experiment: SPR, Biacore 3000 (1st test); ACVR2A-Fc captured by anti-human Fc, Fab injected
T1 construct: extracellular domain; also called ACVR2A-Fc; ACVR2A-FC; not shown: human IgG1 Fc region
From the text: (§1) 2.2 Surface Plasmon resonance (SPR) measurements and affinity analysis by anti-human Fc capture format. After affinity panning, output-3 (03) of CDRH1 library were screened for binding ability by Fab ELISA and followed by NGS DNA sequencing. Based on binding Elisa and sequence abundance from NGS data, 11 clones were select for SPR analysis. Approximately 100-800 resonance units (RU) of antigen ACVR2A, was captured by anti-human Fc immobilized on a channel of a CM5 chip with an activated amine group. After immobilization, Fab antibodies were injected into the channels at 25° C. in HBS-EP buffer, with a flow rate of 30 μL/min, 1 min. When the data collection was finished in each cycle, the sensor surface was regenerated using 80 mM NaOH with a flow rate of 30 μL/min, 15 sec and reused chip in next cycle. After subtraction of reference surface and buffer injection, curve was locally fitted with BIA evaluation version 4.1 using a 1:1 Langmuir binding mode.
(§2) The affinity of selected 11 anti-ACVR2A monoclonal antibody clones were determined on Biacore®3000 and Biacore®8000 as shown in Table 4 below.

[2] = molecular target: T1, recombinant protein comprising the …; experiment: SPR, Biacore 8000 (2nd test); ACVR2A-Fc captured by anti-human Fc, Fab injected
From the text: as §1, §2

T1 sequence (P27037 20-135): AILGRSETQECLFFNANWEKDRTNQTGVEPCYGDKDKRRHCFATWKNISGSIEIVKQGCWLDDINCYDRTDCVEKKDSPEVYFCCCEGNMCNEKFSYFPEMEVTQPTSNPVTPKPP

Binder | Kd [1] | koff [1] | kon [1] | Kd [2] | koff [2] | kon [2]
clone B (Fab) (Fab, V domains shown, Fab made in E. coli TG1 and purified on Ni-NTA) VH: QVQLVQSGAEVKKPGSSVKVSCKASGFQFRTSLISWVRQAPGQGLEWMGGIIPIYGTANYAQKFQGRVTITADESTSTAYMELSSLRSEDTAVYYCVKDLTWTNLGLDIWGQGTMVTVSS VL: EIVMTQSPSSLSASVGDTVTITCRASQGVSRWLAWYQQKPGKAPRLLIYAASSLHSGVPSRFSGSGSGTHFTLTISSLQPEDFATYFCQQSYSTPFTFGPGTKLEIK | 6.81 nM | 0.0022 s⁻¹ | 323000 M⁻¹ s⁻¹ | 5.91 nM | 0.00253 s⁻¹ | 428000 M⁻¹ s⁻¹
clone D (Fab) (Fab, V domains shown, Fab made in E. coli TG1 and purified on Ni-NTA) VH: QVQLVQSGAEVKKPGSSVKVSCKASGQFYHSRISWVRQAPGQGLEWMGGLIPIFGTANYAQKFQGRVTITADESTSTAYMELSSLRSEDTAVYYCVKDLTWTNLGLDIWGQGTMVTVSS VL: EIVMTQSPSSLSASVGDTVTITCRASQSIGRWLAWYQQKPGKAPRLLIYAASSLHSGVPSRFSGSGSGTHFTLTISSLQPEDFATYFCQESYSNPYTFGPGTKLEIK | 12.8 nM | 0.00232 s⁻¹ | 181000 M⁻¹ s⁻¹ | 10.4 nM | 0.00285 s⁻¹ | 273000 M⁻¹ s⁻¹
clone I (Fab) (Fab, V domains shown, Fab made in E. coli TG1 and purified on Ni-NTA) VH: QVQLVQSGAEVKKPGSSVKVSCKASGESFEHFQISWVRQAPGQGLEWMGGIIPIYGTANYAQKFQGRVTITADESTSTAYMELSSLRSEDTAVYYCVKDLTWTNLGLDIWGQGTMVTVSS VL: EIVMTQSPSSLSASVGDTVTITCRASQGVSRWLAWYQQKPGKAPRLLIYAASSLHSGVPSRFSGSGSGTHFTLTISSLQPEDFATYFCQQSYSTPFTFGPGTKLEIK | 1.84 nM | 0.000468 s⁻¹ | 254000 M⁻¹ s⁻¹ | 1.01 nM | 0.000379 s⁻¹ | 374000 M⁻¹ s⁻¹
clone C (Fab) (Fab, V domains shown, Fab made in E. coli TG1 and purified on Ni-NTA) VH: QVQLVQSGAEVKKPGSSVKVSCKASGREFESLFISWVRQAPGQGLEWMGGIIPIYGTANYAQKFQGRVTITADESTSTAYMELSSLRSEDTAVYYCVKDLTWTNLGLDIWGQGTMVTVSS VL: EIVMTQSPSSLSASVGDTVTITCRASQGVSRWLAWYQQKPGKAPRLLIYAASSLHSGVPSRFSGSGSGTHFTLTISSLQPEDFATYFCQQSYSTPFTFGPGTKLEIK | 1.14 nM | 4.16e-05 s⁻¹ | 36500 M⁻¹ s⁻¹ | 3.08 nM | 0.000247 s⁻¹ | 90300 M⁻¹ s⁻¹
clone K (Fab) (Fab, V domains shown, Fab made in E. coli TG1 and purified on Ni-NTA) VH: QVQLVQSGAEVKKPGSSVKVSCKASGMPFQQSQISWVRQAPGQGLEWMGGIIPIYGTANYAQKFQGRVTITADESTSTAYMELSSLRSEDTAVYYCVKDLTWTNLGLDIWGQGTMVTVSS VL: EIVMTQSPSSLSASVGDTVTITCRASQGVSRWLAWYQQKPGKAPRLLIYAASSLHSGVPSRFSGSGSGTHFTLTISSLQPEDFATYFCQQSYSTPFTFGPGTKLEIK | 0.489 nM | 0.000256 s⁻¹ | 523000 M⁻¹ s⁻¹ | 0.212 nM | 0.000259 s⁻¹ | 1.22e+06 M⁻¹ s⁻¹
clone G (Fab) (Fab, V domains shown, Fab made in E. coli TG1 and purified on Ni-NTA) VH: QVQLVQSGAEVKKPGSSVKVSCKASGRHFGSLQISWVRQAPGQGLEWMGGIIPIYGTANYAQKFQGRVTITADESTSTAYMELSSLRSEDTAVYYCVKDLTWTNLGLDIWGQGTMVTVSS VL: EIVMTQSPSSLSASVGDTVTITCRASQGVSRWLAWYQQKPGKAPRLLIYAASSLHSGVPSRFSGSGSGTHFTLTISSLQPEDFATYFCQQSYSTPFTFGPGTKLEIK | 0.612 nM | 0.000152 s⁻¹ | 248000 M⁻¹ s⁻¹ | 0.443 nM | 0.000282 s⁻¹ | 637000 M⁻¹ s⁻¹
clone H (Fab) (Fab, V domains shown, Fab made in E. coli TG1 and purified on Ni-NTA) VH: QVQLVQSGAEVKKPGSSVKVSCKASGLGFHNFQISWVRQAPGQGLEWMGGIIPIYGTANYAQKFQGRVTITADESTSTAYMELSSLRSEDTAVYYCVKDLTWTNLGLDIWGQGTMVTVSS VL: EIVMTQSPSSLSASVGDTVTITCRASQGVSRWLAWYQQKPGKAPRLLIYAASSLHSGVPSRFSGSGSGTHFTLTISSLQPEDFATYFCQQSYSTPFTFGPGTKLEIK | 2.25 nM | 0.000698 s⁻¹ | 311000 M⁻¹ s⁻¹ | 1.38 nM | 0.000901 s⁻¹ | 651000 M⁻¹ s⁻¹
